The nature of data set [1]: Longevity of LTA4 free acid in mock incubation mixtures under aqueous conditions. The format is physicochemical. The note with it: mock incubation mixtures with 0.05% (w/v) bovine serum albumin and potassium phosphate buffer. The source says:
Hydrolysis of LTA4 Methyl Ester--The methyl ester of leukotriene A4 was hydrolyzed to the free acid essentially as described by Carrier, D. J. et al., Prostaglandins Leukot. Essent. Fatty Acids, 34, 27-30 (1988). The hydrolysis was monitored by determination of LTA4 by reverse-phase HPLC at pH 10 (Wynalda, M. A. et al., Anal. Chem., 54, 1079-1082 (1982)) except that LTA4 and LTA4 -methyl ester were eluted by a gradient of 20 to 70% (v/v) acetonitrile in borate buffer instead of isocratically as described in Wynalda et al. LTA4 -methyl ester (1.0 mg in hexane) was dried under a stream of nitrogen and then dissolved in 4 mL of 0.25 M NaOH:acetone (2:8 v/v). Following incubation for 60 min. at 25° C., the hydrolysis mixture was portioned into aliquots that were stored at -80° C. (up to 1 month). Following this procedure, the recovery of LTA4 free acid was >95% as confirmed by analysis of the hydrolysis products by reverse-phase HPLC under alkaline conditions (Wynalda et al.).

Data set [2] addresses T1, LTC4 synthase (Homo sapiens, UniProt Q16873).
T1 sequence (Q16873 1-150): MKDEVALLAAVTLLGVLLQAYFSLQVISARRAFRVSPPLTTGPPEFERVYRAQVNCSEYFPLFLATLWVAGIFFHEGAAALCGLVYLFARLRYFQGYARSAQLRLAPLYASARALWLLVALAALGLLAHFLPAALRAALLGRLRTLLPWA
The data set is described as follows: Measurement of LTC4 synthase activity (LTC4 formation from LTA4 and reduced glutathione, reverse-phase HPLC). The format is biochemical. The arrangement: endogenous in cells; host or cells: THP-1 cells; some values from human lung tissue. As to the method: The mixtures were allowed to stand for a minimum of 30 min. at 4° C. (or overnight). […] The bulk of the resulting supernatant (250 μl) was then transferred to sample vials for reverse-phase HPLC of which 200 μl was injected for analysis.
Analysis of LTC4 Formation by Reverse-Phase HPLC--The reaction products formed in the incubation mixtures described above were resolved by isocratic reverse-phase HPLC on a Waters Associates Novapak C18 column (3.9×150 mm, 4μ particle size). The mobile phase was acetonitrile:methanol:water:acetic acid at 54:14:28:1 adjusted to pH 5.6 with 10 NaOH and was pumped at a flow rate of 1.0 mL/min. LTC4 was quantified by on-line measurement of the optical density at 280 nm. The LTC4 peak was identified by its retention time compared to a synthetic standard (normally 10 min.).

Data set [3] concerns the target T1, LTC4 synthase. The note with it: LTC2-X-biotin:streptavidin-agarose column.
For data set [4], the target named is T2, THP-1 microsomal membrane protein (Homo sapiens, UniProt Q16873).
T2 construct: 0.3 mg of THP-1 microsomal membrane protein; endogenous in cells; host or cells: THP-1 cells (microsomal membranes)
T2 sequence (Q16873 1-150): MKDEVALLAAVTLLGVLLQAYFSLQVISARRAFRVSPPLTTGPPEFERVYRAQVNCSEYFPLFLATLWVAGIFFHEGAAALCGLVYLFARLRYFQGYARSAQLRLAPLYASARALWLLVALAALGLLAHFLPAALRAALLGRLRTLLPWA
The data set is described as follows: Photoaffinity labelling of THP-1 cell membranes. To be noted: 20 pM ligand, 0.3 mg THP-1 microsomal membrane protein, SDS-gel autoradiography. The format is binding. As to the method: The mixtures were incubated in 1.5 mL microcentrifuge tubes for 30 min. at 25° C. then transferred to 35 mm diameter cluster plate wells for photolysis. The samples in cluster plates were cooled for 5 min. at 4° C. then illuminated from above with a 40W ultraviolet light source (Phillips, λmax =350 nm) at a distance of 5 cm for 2 min. at 4° C. The samples were then transferred back into 1.5 mL microcentrifuge tubes and the membranes were re-isolated by centrifugation for 15 min. at 200,000×g. The resulting pellets were dissociated in SDS-containing sample buffer, denatured at 95° C. for 5 min. and then the proteins were resolved by SDS-gel electrophoresis. Radioactive bands in the dried gels were visualized by autoradiography and quantified by laser densitometry.

Substrate in data set [5]: CCCCCC=CCC=CC=CC=CC1OC1CCCC(=O)O
The data set is described as follows: purified protein, by the assay type. The format is biochemical, human. To be noted: 25.0 °C.

Substrate in data set [6]: N[C@@H](CCC(=O)N[C@@H](CS)C(=O)NCC(=O)O)C(=O)O
The data set is described as follows: purified protein, by the assay type. To be noted: 25.0 °C.

The mark [7] stands for this setting: other: THP-1 cells LTC4 synthase.
The mark [8] stands for this setting: other: human monocytes LTC4 synthase.
[9] abbreviates: purification fractions from 2×10^11 THP-1 cells.

On to `CCCCCC=CCC=CC=CC=CC1OC1CCCC(=O)O` (stereo not shown) [LTA4, leukotriene A4, reference compound], for which, in data set [1], the half-life result is reported as “approximately 30 min”. At LTC4 synthase [2], the Preferred substrate result is reported as “LTA4 free acid >> LTA4 methyl ester”.
On to `N[C@@H](CCC(=O)N[C@@H](CS)C(=O)NCC(=O)O)C(=O)O` [GSH, Reduced glutathione, reference compound], for which the “effect on LTC4 synthase binding to the affinity resin” value on LTC4 synthase [3] is “inhibited LTC4 synthase binding to the affinity resin”.
For `CCCCC/C=C\C\C=C/C=C/C=C/[C@@H](SC[C@H](NC(=O)CC[C@H](NC(=O)CCCCCNC(=O)c1cc([125I])c(N=[N+]=[N-])cc1O)C(=O)O)C(=O)NCC(=O)O)[C@@H](O)CCCC(=O)O` [Azido^125 I LTC4], in data set [4], the “photoaffinity radiolabelling of membrane polypeptide” value was “specifically radiolabelled a single membrane polypeptide”.
In the case of `[Cl-].[Na+]` [NaCl], the “effect on LTC4 synthase binding to the affinity resin” value on LTC4 synthase [3] is recorded as “inhibited LTC4 synthase binding to the affinity resin”.
Regarding `CCCCCC=CCC=CC=CC=CC1OC1CCCC(=O)OC` (stereo not shown) [LTA4 methyl ester, methyl ester of leukotriene A4, reference compound], on LTC4 synthase [2], the Preferred substrate result is “LTA4 free acid >> LTA4 methyl ester”.

B1: LTC4 synthase (Homo sapiens) (protein)
chain: MKDEVALLAAVTLLGVLLQAYFSLQVISARRAFRVSPPLTTGPPEFERVYRAQVNCSEYFPLFLATLWVAGIFFHEGAAALCGLVYLFARLRYFQGYARSAQLRLAPLYASARALWLLVALAALGLLAHFLPAALRAALLGRLRTLLPWA
notes: endogenous in cells; host or cells: THP-1 cells; some values from human lung tissue
For the molecule B1, the Km amounted to 9.89 µM in data set [5] (setting [7]), 5.6 µM in data set [5] (setting [8]), 1670 µM in data set [6] (setting [7]) and 1200 µM in data set [6] (setting [8]). Moreover, the Activity with LTC4 synthase [2] (setting [9]) was found to be 1.378 nmol · min^-1 .multid. The “Spec. Activity” value with LTC4 synthase [2] (setting [9]) is recorded as 4135 nmol · min^-1 .multid. Further, the “Rel. Spec. Activity” value with LTC4 synthase [2] (relative to specific activity in harvested cells set at 1.00) is listed as 27,384.
